Data published in patent US20190284258.

Tested on: T1, Haemadipsa sylvestris antithrombotic peptide Sylvestin
T1 sequence: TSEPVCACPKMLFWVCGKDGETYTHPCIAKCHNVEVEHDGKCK

Row | Substance | enzyme kinetics, chromogenic substrate, OD 405 nm; sample 10 µM | enzyme kinetics, chromogenic substrate, OD 405 nm
1 | FXa | had no inhibitory effect on thrombin, plasminogen FXa or the like | 
2 | FXIIa |  | it can inhibit FXIIa and kallikrein
3 | thrombin | had no inhibitory effect on thrombin, plasminogen FXa or the like | 
4 | kallikrein |  | it can inhibit FXIIa and kallikrein
5 | plasminogen | had no inhibitory effect on thrombin, plasminogen FXa or the like | 
